Source: PMC7021693
Where two headings read alike, the source gives them in different places. Blank lines part the entries; values can stand above or below the substance they belong to.

Assays:
[1] = target: ziv-aflibercept (Zaltrap, 25 mg/mL) (human); assay: SEC; as a9; sample: ziv-AFL 25 mg/mL, 1 freeze-thaw cycle
[2] = target: ziv-aflibercept (Zaltrap, 25 mg/mL) (human); assay: SEC; as a9; sample: ziv-AFL medicine adjusted to pH 7.2
[3] = target: ziv-aflibercept (Zaltrap, 25 mg/mL) (human); assay: SEC; as a9; sample: ziv-AFL medicine adjusted to pH 5.2
VEGF [4] = target: VEGF (UniProt P15692); assay: ELISA; as a1; sample: ziv-AFL medicine adjusted to pH 5.2 with 0.1 M HCl
[5] = target: ziv-aflibercept (Zaltrap, 25 mg/mL) (human); assay: SEC; as a9; sample: ziv-AFL diluted in NaCl 1.5 M
[6] = target: ziv-aflibercept (Zaltrap, 25 mg/mL) (human); assay: SEC; as a9; sample: ziv-AFL 25 mg/mL, light irradiation (250 W/m^2) for 12 h
[7] = target: ziv-aflibercept (Zaltrap, 25 mg/mL) (human); assay: SEC; as a9; sample: ziv-AFL 25 mg/mL, 60 °C for 1 h
[8] = target: ziv-aflibercept (Zaltrap, 25 mg/mL) (human); assay: SEC; as a9; sample: ziv-AFL 25 mg/mL, 2 freeze-thaw cycles
[9] = target: ziv-aflibercept (Zaltrap, 25 mg/mL) (human); assay: SEC; as a9; sample: ziv-AFL 25 mg/mL, 60 °C for 3 h
[10] = target: ziv-aflibercept (Zaltrap, 25 mg/mL) (human); assay: SEC; as a9; sample: ziv-AFL diluted in GndHCl 8 M
[11] = target: ziv-aflibercept (Zaltrap, 25 mg/mL) (human); assay: SEC; as a9; sample: ziv-AFL 25 mg/mL, light irradiation (250 W/m^2) for 12 h; remark: listed apart in the source
[12] = target: ziv-aflibercept (Zaltrap, 25 mg/mL) (human); assay: SEC; SE-HPLC/DAD, SEC-5 column, 25 °C, 150 mM phosphate pH 7.0, 0.35 mL/min, 1 ul injected; masses estimated from the column calibration; sample: fresh (control) ziv-AFL 25 mg/mL
VEGF [13] = target: VEGF (UniProt P15692); assay: ELISA; as a1; sample: ziv-AFL medicine adjusted to pH 7.2 with 1 M NH3
[14] = target: ziv-aflibercept (Zaltrap, 25 mg/mL) (human); assay: SEC; as a9; sample: ziv-AFL 25 mg/mL, 60 °C for 2 h
VEGF-A165 (Homo sapiens) [15] = target: VEGF-A165 (Homo sapiens) (UniProt P15692); conditions: cited from earlier work
Sequence of VEGF-A165 (Homo sapiens) (P15692 whole entry): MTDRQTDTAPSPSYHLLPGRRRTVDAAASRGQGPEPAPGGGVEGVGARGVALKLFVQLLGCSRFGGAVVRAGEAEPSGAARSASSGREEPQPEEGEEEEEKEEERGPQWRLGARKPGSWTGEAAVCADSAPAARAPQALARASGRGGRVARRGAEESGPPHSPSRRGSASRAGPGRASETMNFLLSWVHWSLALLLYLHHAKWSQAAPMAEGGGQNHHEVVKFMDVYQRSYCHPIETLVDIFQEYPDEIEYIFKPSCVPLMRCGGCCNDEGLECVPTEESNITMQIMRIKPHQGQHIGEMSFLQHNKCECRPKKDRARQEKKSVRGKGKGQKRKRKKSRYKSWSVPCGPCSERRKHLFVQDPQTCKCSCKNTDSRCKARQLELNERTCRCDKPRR

VEGF-A165 (Homo sapiens) [16] = target: VEGF-A165 (Homo sapiens) (UniProt P15692); conditions: cited from earlier work; remark: listed apart in the source
[17] = SEC; as a9; sample: ziv-AFL medicine adjusted to pH 5.2
[18] = SEC; as a9; sample: ziv-AFL diluted in NaCl 1.5 M
[19] = SEC; as a9; sample: ziv-AFL 25 mg/mL, 60 °C for 1 h
[20] = SEC; as a9; sample: ziv-AFL 25 mg/mL, 60 °C for 3 h
[21] = SEC; as a9; sample: ziv-AFL diluted in GndHCl 8 M

Sequence of ziv-aflibercept (Zaltrap, 25 mg/mL) (chain): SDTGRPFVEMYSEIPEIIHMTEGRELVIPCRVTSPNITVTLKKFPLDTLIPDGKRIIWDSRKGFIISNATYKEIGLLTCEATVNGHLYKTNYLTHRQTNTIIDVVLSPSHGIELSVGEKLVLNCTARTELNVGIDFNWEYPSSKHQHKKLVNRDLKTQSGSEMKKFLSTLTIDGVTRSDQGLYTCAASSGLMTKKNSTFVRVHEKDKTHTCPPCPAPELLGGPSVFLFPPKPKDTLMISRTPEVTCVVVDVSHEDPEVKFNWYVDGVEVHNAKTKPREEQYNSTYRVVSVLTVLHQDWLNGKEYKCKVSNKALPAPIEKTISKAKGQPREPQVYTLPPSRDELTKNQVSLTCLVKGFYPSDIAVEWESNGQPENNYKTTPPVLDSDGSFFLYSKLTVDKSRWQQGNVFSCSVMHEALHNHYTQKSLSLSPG
Sequence of ziv-aflibercept (Zaltrap, 25 mg/mL) (Fc fusion) (chain): as above
Sequence of VEGFR2 (P35968 20-1356): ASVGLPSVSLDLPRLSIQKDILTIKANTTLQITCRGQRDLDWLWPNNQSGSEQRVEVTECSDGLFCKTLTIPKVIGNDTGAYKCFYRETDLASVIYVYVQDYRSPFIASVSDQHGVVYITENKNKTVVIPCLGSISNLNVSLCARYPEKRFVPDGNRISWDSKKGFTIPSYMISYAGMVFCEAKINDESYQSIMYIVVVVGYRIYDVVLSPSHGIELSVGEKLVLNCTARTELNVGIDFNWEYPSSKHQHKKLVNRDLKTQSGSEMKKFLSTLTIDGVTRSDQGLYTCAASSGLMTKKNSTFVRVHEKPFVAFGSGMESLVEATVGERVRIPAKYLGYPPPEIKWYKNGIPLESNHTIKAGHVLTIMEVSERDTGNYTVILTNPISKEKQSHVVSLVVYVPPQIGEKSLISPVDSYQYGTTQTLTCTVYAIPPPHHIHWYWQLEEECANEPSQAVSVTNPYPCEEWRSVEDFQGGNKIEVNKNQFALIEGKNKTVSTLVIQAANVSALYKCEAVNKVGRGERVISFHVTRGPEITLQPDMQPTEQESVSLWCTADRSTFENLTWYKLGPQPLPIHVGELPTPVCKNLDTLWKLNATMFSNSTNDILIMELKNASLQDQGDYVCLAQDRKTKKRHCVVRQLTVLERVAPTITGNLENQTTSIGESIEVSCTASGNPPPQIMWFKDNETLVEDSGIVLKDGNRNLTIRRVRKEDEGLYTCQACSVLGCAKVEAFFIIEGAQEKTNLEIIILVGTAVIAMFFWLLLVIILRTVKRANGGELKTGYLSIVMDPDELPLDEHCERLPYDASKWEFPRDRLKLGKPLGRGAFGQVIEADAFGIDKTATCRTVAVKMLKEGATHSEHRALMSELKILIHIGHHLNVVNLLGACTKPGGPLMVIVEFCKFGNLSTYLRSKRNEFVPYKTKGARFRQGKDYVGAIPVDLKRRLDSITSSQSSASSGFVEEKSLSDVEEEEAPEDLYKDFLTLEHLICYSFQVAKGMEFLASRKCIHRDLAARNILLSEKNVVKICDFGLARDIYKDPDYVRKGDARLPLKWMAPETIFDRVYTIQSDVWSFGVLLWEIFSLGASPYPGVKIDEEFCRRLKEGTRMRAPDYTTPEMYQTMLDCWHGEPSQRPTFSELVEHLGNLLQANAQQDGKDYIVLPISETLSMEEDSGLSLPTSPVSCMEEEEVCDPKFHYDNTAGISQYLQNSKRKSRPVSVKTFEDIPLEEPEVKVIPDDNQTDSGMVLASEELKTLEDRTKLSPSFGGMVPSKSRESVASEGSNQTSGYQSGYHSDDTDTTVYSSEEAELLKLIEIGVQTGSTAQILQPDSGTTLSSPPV
Sequence of VEGFR1 (P17948 27-1338): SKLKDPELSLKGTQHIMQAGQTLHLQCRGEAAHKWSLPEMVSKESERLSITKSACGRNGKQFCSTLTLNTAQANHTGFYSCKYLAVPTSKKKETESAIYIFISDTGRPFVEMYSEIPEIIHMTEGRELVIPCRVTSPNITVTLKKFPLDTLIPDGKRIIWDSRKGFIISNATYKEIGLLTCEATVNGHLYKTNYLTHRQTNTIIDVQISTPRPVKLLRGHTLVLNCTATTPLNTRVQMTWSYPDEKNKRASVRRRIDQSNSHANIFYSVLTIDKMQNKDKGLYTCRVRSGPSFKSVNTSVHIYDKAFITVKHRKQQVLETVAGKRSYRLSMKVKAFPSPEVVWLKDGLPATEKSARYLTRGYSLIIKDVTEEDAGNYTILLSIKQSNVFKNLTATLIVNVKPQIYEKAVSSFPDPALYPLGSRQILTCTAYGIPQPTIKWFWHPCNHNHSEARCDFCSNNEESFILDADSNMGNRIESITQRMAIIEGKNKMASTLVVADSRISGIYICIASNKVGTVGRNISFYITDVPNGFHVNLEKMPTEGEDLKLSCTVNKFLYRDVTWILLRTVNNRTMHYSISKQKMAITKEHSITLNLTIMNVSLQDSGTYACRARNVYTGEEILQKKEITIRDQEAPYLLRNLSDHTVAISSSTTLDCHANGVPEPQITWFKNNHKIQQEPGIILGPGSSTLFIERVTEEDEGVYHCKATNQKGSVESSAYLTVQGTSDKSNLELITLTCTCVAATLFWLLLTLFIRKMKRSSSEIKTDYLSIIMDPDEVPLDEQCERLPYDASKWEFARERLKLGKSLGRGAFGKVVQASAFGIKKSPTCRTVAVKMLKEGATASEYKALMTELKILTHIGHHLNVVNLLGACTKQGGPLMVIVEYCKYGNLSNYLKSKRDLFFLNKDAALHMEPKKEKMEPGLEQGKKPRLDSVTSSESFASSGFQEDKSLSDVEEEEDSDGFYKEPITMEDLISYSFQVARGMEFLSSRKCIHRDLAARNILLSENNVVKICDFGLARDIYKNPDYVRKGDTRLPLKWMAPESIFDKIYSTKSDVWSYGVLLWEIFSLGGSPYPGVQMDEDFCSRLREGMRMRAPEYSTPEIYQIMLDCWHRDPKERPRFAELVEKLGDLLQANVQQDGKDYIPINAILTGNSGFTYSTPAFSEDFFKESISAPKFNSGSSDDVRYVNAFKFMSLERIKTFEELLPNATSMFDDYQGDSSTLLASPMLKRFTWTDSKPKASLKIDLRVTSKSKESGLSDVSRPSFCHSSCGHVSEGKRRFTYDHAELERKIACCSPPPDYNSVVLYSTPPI

abundance of dimer (% of total peak area) [1]: 1.9%
abundance of dimer (% of total peak area) [2]: 1.8%
abundance of dimer (% of total peak area) [3]: 2%
remaining biological activity (ELISA against the control, test samples at 10 and 100 µg/ml) (VEGF [4]): 25%
abundance of dimer (% of total peak area) [5]: 1.4%
abundance of dimer (% of total peak area) [6]: 12.2%
abundance of dimer (% of total peak area) [7]: 8%
abundance of dimer (% of total peak area) [8]: 2.1%
abundance of dimer (% of total peak area) [9]: 7.7%
abundance of dimer (% of total peak area) [10]: 19%
abundance of dimer (% of total peak area) [11]: 12.4%
abundance of dimer (% of total peak area) [12]: 1.9%
stoichiometry N [12]: 2
remaining biological activity (ELISA against the control, test samples at 10 and 100 µg/ml) (VEGF [13]): 36%
abundance of dimer (% of total peak area) [14]: 7.8%
stoichiometry N [14]: 10
Substance: ziv-aflibercept (Zaltrap, 25 mg/mL) (Fc fusion)

Substance: VEGFR2 (from UniProt P35968)
Kd (VEGF-A165 (Homo sapiens) [15]): 0.0888 nM

Substance: VEGFR1 (from UniProt P17948)
Kd (VEGF-A165 (Homo sapiens) [16]): 0.00933 nM

Substance: ziv-aflibercept (Zaltrap, 25 mg/mL)
abundance of non-natural HMW aggregates (% of total peak area) [17]: 0.8%
abundance of non-natural HMW aggregates (% of total peak area) [18]: 1.1%
abundance of non-natural HMW aggregates (% of total peak area) [19]: 22.1%
abundance of non-natural HMW aggregates (% of total peak area) [20]: 55.2%
abundance of non-natural HMW aggregates (% of total peak area) [21]: 7.2% and a higher order of aggregation at 5.46 min (5.56%)
